{"source": "patent US20110135656A1", "biological_target": "C5a receptor (mouse) (UniProt P30993)", "sequence (P30993 whole entry)": "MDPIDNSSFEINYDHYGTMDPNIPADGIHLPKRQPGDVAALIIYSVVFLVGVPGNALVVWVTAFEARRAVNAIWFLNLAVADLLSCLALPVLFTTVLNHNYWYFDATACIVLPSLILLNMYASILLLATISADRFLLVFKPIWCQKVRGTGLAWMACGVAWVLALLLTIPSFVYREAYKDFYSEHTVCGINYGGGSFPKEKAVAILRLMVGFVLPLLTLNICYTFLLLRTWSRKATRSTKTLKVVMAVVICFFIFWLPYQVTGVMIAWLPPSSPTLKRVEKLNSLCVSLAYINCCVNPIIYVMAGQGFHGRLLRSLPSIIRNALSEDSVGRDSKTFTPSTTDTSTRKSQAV", "experiment": "cell-based or functional assay"}
{"substance": "Murine C5a (from UniProt P06684 679-755) (ligand)", "values": [{"measurement": "6 hr viability of C5-deficient or C3-/- T cells in serum-free medium", "result": 25, "unit": "%"}]}
